According to paper PMC2034677 (Molecular microbiology, 2002):

Target: the molecule itself
Experiment: native gel or EMSA

B1: GST–endoE fusion protein (recombinant bacteriophage K1E endosialidase, wild type) (enzyme, UniProt P49714 1-706, looked up)
chain: MIQRLGSSLVKFKSKIAGAIWRNLDDKLTEVVSLKDFGAKGDGKTNDQDAVNAAMASGKRIDGAGATYKVSSLPDMERFYNTRFVWERLAGQPLYYVSKGFINGELYKITDNPYYNAWPQDKAFVYENVIYAPYMGSDRHGVSRLHVSWVKSGDDGQTWSTPEWLTDMHPDYPTVNYHCMSMGVCRNRLFAMIETRTLAKNELTNCALWDRPMSRSLHLTGGITKAANQRYATIHVPDHGLFVGDFVNFSNSAVTGVSGDMKVATVIDKDNFTVLTPNQQTSDLNNAGKNWHMGTSFHKSPWRKTDLGLIPRVTEVHSFATIDNNGFVMGYHQGDVAPREVGLFYFPDAFNSPSNYVRRQIPSEYEPDAAEPCIKYYDGVLYLITRGTRGDRLGSSLHRSRDIGQTWESLRFPHNVHHTTLPFAKVGDDLIMFGSERAENEWEAGAPDDRYKASYPRTFYARLNVNNWNADDIEWVNITDQIYQGDIVNSSVGVGSVVVKDSFIYYIFGGENHFNPMTYGDNKDKDPFKGHGHPTDIYCYKMQIANDNRVSRKFTYGATPGQAIPTFMGTDGIRNIPAPLYFSDNIVTEDTKVGHLTLKASTSANIRSEMQMEGEYGFIGKSVPKDKPTGQRLIICGGEGTSSSSGAQITLHGSNSSNAKRITYNGNEHLFQGAPIMPAVDNQFAAGGPSNRFTTIYLGSDPVTTS
- stoichiometry N: 3
